This assay addresses T1, TRPV2 (transient receptor potential vanilloid 2), endogenous in RBL2H3 mast cells (rat (endogenous in RBL2H3)), Q9WUD2.
T1 chain: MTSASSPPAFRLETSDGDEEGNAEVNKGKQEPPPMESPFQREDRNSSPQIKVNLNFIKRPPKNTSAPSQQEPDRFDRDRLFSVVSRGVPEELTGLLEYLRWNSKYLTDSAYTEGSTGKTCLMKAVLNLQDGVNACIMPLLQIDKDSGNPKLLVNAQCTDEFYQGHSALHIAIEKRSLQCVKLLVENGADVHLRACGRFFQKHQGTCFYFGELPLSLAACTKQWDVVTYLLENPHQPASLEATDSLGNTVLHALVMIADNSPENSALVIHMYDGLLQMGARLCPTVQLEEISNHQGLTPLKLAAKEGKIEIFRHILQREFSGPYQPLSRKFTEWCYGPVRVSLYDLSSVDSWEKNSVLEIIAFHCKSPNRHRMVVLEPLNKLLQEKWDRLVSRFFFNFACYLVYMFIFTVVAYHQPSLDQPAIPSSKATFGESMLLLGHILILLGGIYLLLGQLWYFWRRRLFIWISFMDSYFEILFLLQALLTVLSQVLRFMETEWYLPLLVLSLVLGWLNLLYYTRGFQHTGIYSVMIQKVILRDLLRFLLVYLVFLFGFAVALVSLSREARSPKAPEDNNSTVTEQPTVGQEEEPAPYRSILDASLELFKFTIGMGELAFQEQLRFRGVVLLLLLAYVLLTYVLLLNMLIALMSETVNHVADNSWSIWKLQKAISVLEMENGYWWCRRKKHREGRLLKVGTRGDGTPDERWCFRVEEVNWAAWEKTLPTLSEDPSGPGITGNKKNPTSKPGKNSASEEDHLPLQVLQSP
The experiment in a line: native gel or EMSA. The following applies: remark: other sources report otherwise. (In general: In EMSA bound probe runs differently from free probe, usually more slowly.)

B1: TRPV2 (transient receptor potential vanilloid 2), endogenous in RBL2H3 mast cells, Q9WUD2 1-761 (natural protein)
chain: MTSASSPPAFRLETSDGDEEGNAEVNKGKQEPPPMESPFQREDRNSSPQIKVNLNFIKRPPKNTSAPSQQEPDRFDRDRLFSVVSRGVPEELTGLLEYLRWNSKYLTDSAYTEGSTGKTCLMKAVLNLQDGVNACIMPLLQIDKDSGNPKLLVNAQCTDEFYQGHSALHIAIEKRSLQCVKLLVENGADVHLRACGRFFQKHQGTCFYFGELPLSLAACTKQWDVVTYLLENPHQPASLEATDSLGNTVLHALVMIADNSPENSALVIHMYDGLLQMGARLCPTVQLEEISNHQGLTPLKLAAKEGKIEIFRHILQREFSGPYQPLSRKFTEWCYGPVRVSLYDLSSVDSWEKNSVLEIIAFHCKSPNRHRMVVLEPLNKLLQEKWDRLVSRFFFNFACYLVYMFIFTVVAYHQPSLDQPAIPSSKATFGESMLLLGHILILLGGIYLLLGQLWYFWRRRLFIWISFMDSYFEILFLLQALLTVLSQVLRFMETEWYLPLLVLSLVLGWLNLLYYTRGFQHTGIYSVMIQKVILRDLLRFLLVYLVFLFGFAVALVSLSREARSPKAPEDNNSTVTEQPTVGQEEEPAPYRSILDASLELFKFTIGMGELAFQEQLRFRGVVLLLLLAYVLLTYVLLLNMLIALMSETVNHVADNSWSIWKLQKAISVLEMENGYWWCRRKKHREGRLLKVGTRGDGTPDERWCFRVEEVNWAAWEKTLPTLSEDPSGPGITGNKKNPTSKPGKNSASEEDHLPLQVLQSP
As usually defined, the stoichiometry N is the number of molecules, sites or subunits per partner or assembly. Consider B1, for which the stoichiometry N amounted to 4.

Source of the values: PMC2212017.
